Values of other authors in US20030003565A1, “Functional lentiviral vector from an MLV-based backbone” (priority 2000, published 2003).

Conditions: patients with septic shock, constant infusion for three days; 44% with placebo infusions

B1: IL-1R: recombinant IL-1R given as constant infusion to patients with septic shock (protein, UniProt P14778 18-336, looked up)
extracellular domain: LEADKCKEREEKIILVSSANEIDVRPCPLNPNEHKGTITWYKDDSKTPVSTEQASRIHQHKEKLWFVPAKVEDSGHYYCVVRNSSYCLRIKISAKFVENEPNLCYNAQAIFKQKLPVAGDGGLVCPYMEFFKNENNELPKLQWYKDCKPLLLDNIHFSGVKDRLIVMNVAEKHRGNYTCHASYTYLGKQYPITRVIEFITLEENKPTRPVIVSPANETMEVDLGSQIQLICNVTGQLSDIAYWKWNGSVIDEDDPVLGEDYYSVENPANKRRSTLITVLNISEIESRFYKHPFTCFAKNTHGIDAAYIQLIYPVTNFQK
modifications: extracellular domain
  28 day mortality: 16%
